Measurements reported in patent US20250320312A1 (OXITOPE PHARMA B V, published 2025).

T1: Peptide 4: Biotin-AGGGGSGGGGSGGGGSAAA-Tyr-acid (N-terminal biotin; C-terminal acid; no PC)
T1 construct: control peptide without PC
T1 peptide: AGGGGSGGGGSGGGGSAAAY

T2: Peptide 8: Biotin-AEAAAKEAAAKEAAAKEAAAKAAA-Tyr-acid (N-terminal biotin; C-terminal acid; no PC)
T2 construct: control peptide without PC
T2 peptide: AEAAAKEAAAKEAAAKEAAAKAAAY


Key:
Assay in all cases: scFv ELISA
[1] = target: T1, Peptide 4: …
Summary of the method: (§1)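 Bound scFv was read as OD450 after HRP–anti-V5 detection, TMB development and HCl stop. PPE with BSA was incubated 1 h at RT on BSA-blocked wells coated overnight at 4° C. with peptide, or on streptavidin wells loaded 1 h with biotinylated PC-peptides at 1 μg/mL.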

[2] = target: T2, Peptide 8: …
Summary of the method: as §1

[3] = target: BSA (UniProt P02769)
BSA, sequence (P02769 25-607 limits assumed): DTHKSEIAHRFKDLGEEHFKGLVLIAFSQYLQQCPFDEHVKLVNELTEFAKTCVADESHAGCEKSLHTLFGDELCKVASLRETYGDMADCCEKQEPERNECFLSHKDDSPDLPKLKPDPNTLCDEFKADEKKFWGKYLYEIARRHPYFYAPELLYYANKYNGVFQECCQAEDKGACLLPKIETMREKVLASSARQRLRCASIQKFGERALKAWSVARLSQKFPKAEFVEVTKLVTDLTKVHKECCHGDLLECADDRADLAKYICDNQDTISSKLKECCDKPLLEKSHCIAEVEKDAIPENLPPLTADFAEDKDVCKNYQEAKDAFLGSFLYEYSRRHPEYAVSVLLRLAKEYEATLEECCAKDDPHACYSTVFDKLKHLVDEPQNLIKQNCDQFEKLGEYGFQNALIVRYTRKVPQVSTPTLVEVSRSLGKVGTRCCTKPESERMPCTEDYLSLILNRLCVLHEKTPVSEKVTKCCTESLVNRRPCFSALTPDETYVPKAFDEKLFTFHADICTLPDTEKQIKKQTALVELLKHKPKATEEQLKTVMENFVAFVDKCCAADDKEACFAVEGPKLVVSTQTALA

[4] = target: Peptide 1: Biotin-…-[Tyr(PC)]-acid
[5] = target: Peptide 5: Biotin-…-[Tyr(PC)]-acid

Binder	OD450 [1]	OD450 [2]	OD450 [3]	OD450 [4]	OD450 [5]
PcOxP_DB01_E01 (scFv, V domains shown, scFv in periplasmic extract) VH: EVQLLESGGGLVQPGGSLRLSCAASGFTSSDFYMEWVRQAPGKGLEWVAASRNKANDYTTEYADSVKGRFTISRDNSKNTLYLQMNSLRAEDTAVYYCARDYYGSSYWYFDVWGQGTLVTVSS VL: DIVMTQSPDSLAVSLGERATINCTASESLYSSKHKVHYLAWYQQKPGQPPKLLIYGASNRVIGVPDRFSGSGSGTDFTLTISSLQAEDVAVYYCANFYSYPLTFGGGTKVEIK	0.05 OD450	0.04 OD450	0.05 OD450	0.75 OD450	1.48 OD450
PcOxP_DB01_E03 (scFv, V domains shown, scFv in periplasmic extract) VH: EVQLLESGGGLVQPGGSLRLSCAASGFGFSDFYMEWVRQAPGKGLEWVGASRNKHNDYTTEYADSVKGRFTISRDNSKNTLYLQMNSLRAEDTAVYYCARDYYGSSYWYFDVWGQGTLVTVSS VL: DIVMTQSPDSLAVSLGERATINCKSSESVYSSKHKKHYLAWYQQKPGQPPKLLIYGASNRYIGVPDRFSGSGSGTDFTLTISSLQAEDVAVYYCAQFYSYPLTFGGGTKVEIK	0.05 OD450	0.05 OD450	0.08 OD450	0.86 OD450	1.54 OD450
PcOxP_DB01_E02 (scFv, V domains shown, scFv in periplasmic extract) VH: EVQLLESGGGLVQPGGSLRLSCAASGFTFSDYYMEWVRQAPGKGLEWVAASRNKGNDYTTEYADSVKGRFTISRDNSKNTLYLQMNSLRAEDTAVYYCARDYYGSSYWYFDVWGQGTLVTVSS VL: DIVMTQSPDSLAVSLGERATINCTASESLYSSKHKVHYLAWYQQKPGQPPKLLIYGASNRYIGVPDRFSGSGSGTDFTLTISSLQAEDVAVYYCAQFYSYPLTFGGGTKVEIK	0.05 OD450	0.05 OD450	0.07 OD450	0.46 OD450	1.02 OD450

Next, values leading:

OD450 [1]	OD450 [2]	OD450 [3]	OD450 [4]	OD450 [5]	Binder
0.05 OD450	0.05 OD450	0.07 OD450	0.87 OD450	1.51 OD450	PcOxP_DB01_E07 (scFv, V domains shown, scFv in periplasmic extract) VH: EVQLLESGGGLVQPGGSLRLSCAASGFTFSSYYMEWVRQAPGKGLEWVAASRNKANDYTTEYADSVKGRFTISRDNSKNTLYLQMNSLRAEDTAVYYCARDYYGSSYWYFDVWGQGTLVTVSS VL: DIVMTQSPDSLAVSLGERATINCTASESLYSSKHKVDYLAWYQQKPGQPPKLLIYGASNRYIGVPDRFSGSGSGTDFTLTISSLQAEDVAVYYCAQFYSYPLTFGGGTKVEIK
0.05 OD450	0.05 OD450	0.08 OD450	0.6 OD450	1.78 OD450	PcOxP_DB01_F01 (scFv, V domains shown, scFv in periplasmic extract) VH: EVQLLESGGGLVQPGGSLRLSCAASGFPFSDFYMEWVRQAPGKGLEWVAASRNKANDYTTEYADSVKGRFTISRDNSKNTLYLQMNSLRAEDTAVYYCARDYYGSPYWYFDVWGQGTLVTVSS VL: DIVMTQSPDSLAVSLGERATINCTASESVYSSKNKKHYLAWYQQKPGQPPKLLIYGASNRYIGVPDRFSGSGSGTDFTLTISSLQAEDVAVYYCAQFYTYPLTFGGGTKVEIK
0.04 OD450	0.04 OD450	0.06 OD450	0.77 OD450	1.26 OD450	PcOxP_DB01_E09 (scFv, V domains shown, scFv in periplasmic extract) VH: EVQLLESGGGLVQPGGSLRLSCAASGNTFSDFYMEWVRQAPGKGLEWVAASRNKANDYTTEYADSVKGRFTISRDNSKNTLYLQMNSLRAEDTAVYYCARDYYGSSYWYFDVWGQGTLVTVSS VL: DIVMTQSPDSLAVSLGERATINCTASESLYSSKHKVHYLAWYQQKPGQPPKLLIYGASNRYIGVPDRFSGSGSGTDFTLTISSLQAEDVAVYYCANFYSYPLTFGGGTKVEIK
0.05 OD450	0.04 OD450	0.06 OD450	0.47 OD450	0.82 OD450	PcOxP_DB01_E08 (scFv, V domains shown, scFv in periplasmic extract) VH: EVQLLESGGGLVQPGGSLRLSCAASGDTFSDFYMEWVRQAPGKGLEWVAASRNKANAYTTEYADSVKGRFTISRDNSKNTLYLQMNSLRAEDTAVYYCARDYYGQSYWYFDVWGQGTLVTVSS VL: DIVMTQSPDSLAVSLGERATINCTASESLYSSKHKVHYLAWYQQKPGQPPKLLIYGASNRYIGVPDRFSGSGSGTDFTLTISSLQAEDVAVYYCAQFYSYPLTFGGGTKVEIK
